# Measured values from paper PMC9438502, “Complementarity of neutron, XFEL and synchrotron crystallography for defining the structures of metalloenzymes at room temperature” (IUCrJ, 2022).
# Biological target: the molecule itself
# Test: crystal structure; room-temperature crystals of DHP-B, space group P2(1)2(1)2(1); neutron, in-house X-ray, SFX, SSX and serial Laue data; two protomers (A, B) in the asymmetric unit
protein,measurement,value
"dehaloperoxidase B (enzyme, Amphitrite ornata, dehaloperoxidase B (DHP-B), heme-containing coelomic hemoglobin of the marine annelid Amphitrite ornata; 274 protein residues modelled for the two protomers of the asymmetric unit; Heme protein, ferric or oxyferrous; The crystal for NX and NX-Xray was perdeuterated (97% deuteration level); the other crystals were protiated; also called DHP-B; dehaloperoxidase isoenzyme B; source: E. coli …) MGFKQDIATLRGDLRTYAQDIFLAFLNKYPDEKRNFKNYVGKSDQELKSMAKFGDHTEKVFNLMMEVADRATDCVPLASDASTLVQMKQHSGLTTGNFEKLFVALVEYMRASGQSFDSQSWDRFGKNLVSALSSAGMK",binding result,binds
